Results reported in patent US20220282217A1 (BIONTECH US, published 2022).
Each block holds one binder with its values, some of them ahead of it.

Tests used:
HLA-A03.01 [1] = target: T1, HLA-A03.01 (human); test: competition vs radiolabeled reference peptide on purified MHC I, gel filtration
T1 construct: As for HLA-A02.01
Protocol: (§1) Peptides were incubated at varying concentrations with these complexes for 2 days, and the amount of remaining radiolabeled peptide bound to […] was measured using size exclusion gel-filtration.

HLA-A03.01 [2] = target: T2, HLA-A03.01 (human); test: competition with radiolabeled reference peptide, purified MHC I
T2 construct: Purified class I MHC
Protocol: as §1

HLA-B08.01 [3] = target: T3, HLA-B08.01 (human); test: pMHC-I dissociation half-life, 125I-b2m
T3 construct: Purified class I MHC
Protocol: (§2) Briefly, synthetic genes encoding biotinylated MHC-I heavy and light chains are expressed in E. coli and purified from inclusion bodies using standard methods. […] These reactions are carried out in streptavidin coated microplates to bind the biotinylated MHC-I heavy chains to the surface and allow measurement of radiolabeled light chain to monitor complex formation. Dissociation is initiated by addition of higher concentrations of unlabeled light-chain and incubation at 37° C. Stability is defined as the length of time in hours it takes for half of the complexes to dissociate, as measured by scintillation counts.

HLA-A02.01 [4] = target: T4, HLA-A02.01 (human); test: competition with radiolabeled reference peptide, purified MHC I
T4 construct: Purified class I MHC
Protocol: as §1

HLA-A02.01 [5] = target: T4, HLA-A02.01; test: pMHC-I dissociation half-life, 125I-b2m
Protocol: as §2

HLA-A02.01 [6] = target: HLA-A02.01 (human); test: competition vs radiolabeled reference peptide on purified MHC I, gel filtration
Protocol: as §1

HLA-A02.01 [7] = target: HLA-A02.01 (human); test: pMHC-I complex dissociation at 37 C, 125I-b2m, half-life
Protocol: as §2

HLA-B08.01 [8] = target: T5, HLA-B08.01 (human); test: as above
T5 construct: As for HLA-A02.01
Protocol: as §2

- IC50 (HLA-A03.01 [1]): 101 nM
Binder: LSFLSSWDYR (also called C15ORF40(+1))

- IC50 (HLA-A03.01 [2]): 5.7 nM
Binder: KMRKKYAQK (also called THAP5(-1))

- IC50 (HLA-A02.01 [4]): 503 nM
- Stability (T1/2 (h)) (HLA-A02.01 [5]): 0 h
Binder: NSFEVHVCA (also called TP53, R273H)

- IC50 (HLA-A02.01 [6]): 4260 nM
- Stability (T1/2 (h)) (HLA-A02.01 [7]): 0.2 h
- Stability (T1/2 (h)) (HLA-B08.01 [8]): 0 h
Binder: IQLQDKFEHL (also called EGFR: SEPT14)

- IC50 (HLA-A02.01 [4]): 2080 nM
- Stability (T1/2 (h)) (HLA-A02.01 [5]): 0 h
Binder: LLGRNSFEVC (also called TP53, R273C)

- IC50 (HLA-A03.01 [2]): 1250 nM
Binder: ITTVKATETK (also called SEC63 (+1))

- IC50 (HLA-A03.01 [1]): 19 nM
Binder: SLQPPPPGFK (also called C15ORF40(+1))

- Stability (T1/2 (h)) (HLA-B08.01 [8]): 0 h
Binder: LTINKEEAL (also called BCR: ABL (e13a2, aka b2a2))

- Stability (T1/2 (h)) (HLA-A02.01 [5]): 0.9 h
Binder: VVPCEPPEV (also called TP53, Y220C)

- Stability (T1/2 (h)) (HLA-B08.01 [8]): 0 h
Binder: SLPRFILMEL (also called ALK, L1196M)

- IC50 (HLA-A03.01 [1]): 9.8 nM
Binder: TTLNSPPLK (also called β2M, . . ; MPAV)

- IC50 (HLA-A03.01 [2]): 32.2 nM
Binder: KTFEKKGEK (also called TTK(-1))

- IC50 (HLA-A03.01 [1]): 1770 nM
Binder: LLTSSSREWK (also called β2M, . . ; SIRH)

- Stability (T1/2 (h)) (HLA-B08.01 [3]): 0 h
Binder: TQLARFFPI (also called RNF43, RHTP)

- Stability (T1/2 (h)) (HLA-B08.01 [8]): 0 h
Binder: QLIMQLMPF (also called EGFR, T790M)

- IC50 (HLA-A03.01 [2]): 48.4 nM
Binder: KLMLLRLNLR (also called SEC31A(-1))

- IC50 (HLA-A03.01 [2]): 2360 nM
Binder: TYTCAITTVK (also called SEC63 (+1))

- IC50 (HLA-A02.01 [4]): 68 nM
- Stability (T1/2 (h)) (HLA-A02.01 [5]): 12.8 h
Binder: LLAFWDSQV (also called TP53, AAVG)

- IC50 (HLA-A03.01 [2]): 332 nM
Binder: KRVNTAWKTK (also called TFAM(+1))

- IC50 (HLA-A03.01 [2]): 39.6 nM
Binder: KSKKKETFKK (also called SEC63 (+1))

- IC50 (HLA-A03.01 [2]): 9.6 nM
Binder: SLKKVPALKK (also called SMAP1(-1))

- IC50 (HLA-A03.01 [2]): 115 nM
Binder: KISNWSLKKV (also called SMAP1(-1))

More lines, now with the values behind:

Binder: ALFFFFFETK (also called C15ORF40(+1))
- IC50 (HLA-A03.01 [1]): 216 nM

Binder: RKISNWSLKK (also called SMAP1(-1))
- IC50 (HLA-A03.01 [2]): 131 nM

Binder: MALNSEALSV (also called TMPRSS2: ERG)
- Stability (T1/2 (h)) (HLA-B08.01 [3]): 0 h

Binder: ALNSEALSV (also called TMPRSS2: ERG)
- IC50 (HLA-A02.01 [4]): 14 nM
- Stability (T1/2 (h)) (HLA-A02.01 [5]): 9.1 h

Binder: RVNTAWKTK (also called TFAM(+1))
- IC50 (HLA-A03.01 [2]): 8.6 nM

Binder: NSFEVCVCA (also called TP53, R273C)
- IC50 (HLA-A02.01 [4]): 2200 nM
- Stability (T1/2 (h)) (HLA-A02.01 [5]): 0 h

Binder: AMTTSSSQKN (also called TGFBR2(-1))
- IC50 (HLA-A03.01 [2]): 2340 nM

Binder: ALNSEALSVV (also called TMPRSS2: ERG)
- Stability (T1/2 (h)) (HLA-A02.01 [5]): 2.9 h

Binder: RMKVPLMK (also called FAM111B(-1))
- IC50 (HLA-A03.01 [1]): 33 nM

Binder: TLNSPPLKK (also called β2M, . . ; MPAV)
- IC50 (HLA-A03.01 [1]): 5.4 nM

Binder: CTTLNSPPLK (also called β2M, . . ; MPAV)
- IC50 (HLA-A03.01 [1]): 63.6 nM

Binder: IMQLMPFGCL (also called EGFR, T790M)
- Stability (T1/2 (h)) (HLA-B08.01 [8]): 0 h

Binder: MANGSLLNYL (also called BTK, C481S)
- Stability (T1/2 (h)) (HLA-B08.01 [8]): 0 h

Binder: LTSSSREWK (also called β2M, . . ; SIRH)
- IC50 (HLA-A03.01 [1]): 118 nM

Binder: VQLIMQLMPF (also called EGFR, T790M)
- Stability (T1/2 (h)) (HLA-B08.01 [8]): 0 h

Binder: LMLLRLNLRK (also called SEC31A(-1))
- IC50 (HLA-A03.01 [2]): 6 nM

Binder: KSRQNHLQLK (also called SMAP1(-1))
- IC50 (HLA-A03.01 [2]): 4.7 nM

Binder: ALSEHCPTT (also called TP53, CSES)
- IC50 (HLA-A02.01 [4]): 79 nM
- Stability (T1/2 (h)) (HLA-A02.01 [5]): 27.3 h

Binder: LQSLPRFILM (also called ALK, L1196M)
- Stability (T1/2 (h)) (HLA-B08.01 [8]): 0 h

Binder: SLLNYLREM (also called BTK, C481S)
- Stability (T1/2 (h)) (HLA-B08.01 [8]): 0 h

Binder: MLLRLNLRK (also called SEC31A(-1))
- IC50 (HLA-A03.01 [2]): 1.3 nM

Binder: FVMSDTTYK (also called TTK(-1))
- IC50 (HLA-A03.01 [2]): 66.9 nM

Binder: HLQLKSCRRK (also called SMAP1(-1))
- IC50 (HLA-A03.01 [2]): 96.9 nM

Binder: YMCNSSCMGS (also called TP53, G245S)
- IC50 (HLA-A02.01 [4]): 81 nM
- Stability (T1/2 (h)) (HLA-A02.01 [5]): 0.8 h

Binder: TTLNSPPLKK (also called β2M, . . ; MPAV)
- IC50 (HLA-A03.01 [1]): 14.3 nM

Binder: WSLKKVPALK (also called SMAP1(-1))
- IC50 (HLA-A03.01 [2]): 94.9 nM

Binder: GLVDEQQEV (also called SF3B1, K700E)
- IC50 (HLA-A02.01 [4]): 44 nM
- Stability (T1/2 (h)) (HLA-A02.01 [5]): 7.4 h

Binder: MQLMPFGCLL (also called EGFR, T790M)
- Stability (T1/2 (h)) (HLA-B08.01 [8]): 0 h

Binder: KLFSCLSFLS (also called C15ORF40(+1))
- IC50 (HLA-A02.01 [6]): 0.6 nM
- IC50 (HLA-A03.01 [1]): 104 nM

Binder: VLERCPHRPI (also called FGFR3, S249C)
- IC50 (HLA-A02.01 [6]): 15300 nM
- Stability (T1/2 (h)) (HLA-A02.01 [7]): 0 h
- Stability (T1/2 (h)) (HLA-B08.01 [8]): 0 h

Binder: QLQDKFEHL (also called EGFR: SEPT14)
- Stability (T1/2 (h)) (HLA-A02.01 [7]): 0.6 h
- Stability (T1/2 (h)) (HLA-B08.01 [8]): 0 h

Binder: KSKKKETFK (also called SEC63 (+1))
- IC50 (HLA-A03.01 [2]): 74.3 nM

Binder: SVCFFFFSV (also called CNOT1(+1))
- Stability (T1/2 (h)) (HLA-B08.01 [8]): 0 h

Binder: GLLAFWDSQV (also called TP53, AAVG)
- IC50 (HLA-A02.01 [4]): 10 nM
- Stability (T1/2 (h)) (HLA-A02.01 [5]): 14.2 h

Binder: RVNTAWKTKK (also called TFAM(+1))
- IC50 (HLA-A03.01 [2]): 2.3 nM

Binder: LFVMSDTTYK (also called TTK(-1))
- IC50 (HLA-A03.01 [2]): 749 nM

Binder: MANGSLLNY (also called BTK, C481S)
- IC50 (HLA-A03.01 [1]): 35.6 nM

Binder: LFFFFFETK (also called C15ORF40(+1))
- IC50 (HLA-A03.01 [1]): 413 nM

Binder: MQLMPFGCL (also called EGFR, T790M)
- Stability (T1/2 (h)) (HLA-B08.01 [8]): 0 h

Binder: SMLTDSLFL (also called VHL, QCIL)
- IC50 (HLA-A02.01 [4]): 31 nM
- Stability (T1/2 (h)) (HLA-A02.01 [5]): 9.8 h

Binder: GMNQRPILT (also called TP53, R248Q)
- IC50 (HLA-A02.01 [4]): 3030 nM
- Stability (T1/2 (h)) (HLA-A02.01 [5]): 0 h

Binder: GMNWRPILT (also called TP53, R248W)
- IC50 (HLA-A02.01 [4]): 1130 nM
- Stability (T1/2 (h)) (HLA-A02.01 [5]): 0 h

Binder: ELFPLIFPA (also called C11orf95: RELA)
- IC50 (HLA-A02.01 [6]): 13 nM
- Stability (T1/2 (h)) (HLA-A02.01 [7]): 5.1 h
- Stability (T1/2 (h)) (HLA-B08.01 [8]): 0 h
